Data from US7101975B1, “Method and composition for inhibition of angiogenesis using antagonists based on MMP-9 and β1 integrins” (University of Southern California, priority 1999, dated 2006).
“Also recorded” adds a separate entry of the source. Where no end group is shown, it is not given here.

Columns and labels:
MMP-9 = MMP-9 (Homo sapiens, UniProt P14780); assay: Solid phase binding assay of synthetic peptides to MMP-9; details: solid phase binding assays, FIG. 7
Protocol: For example, synthetic peptides were generated and analyzed for binding activity to MMP-9. The binding ability of the peptides was analyzed by solid phase binding assays.

[1] = tested on: angiogenesis on the CAMs of chick embryos; assay: Chick embryo CAM angiogenesis assay (bFGF-induced); assay type: in vivo; details: 10 day old chick embryos, single IV injection 100 μg 24 h later, counted three days later, FIG. 8B
Source text: For example, one assay measures angiogenesis in the chick chorioallantoic membrane (CAM) and is referred to as the CAM assay. The CAM assay has been described in detail by others, and further has been used to measure both angiogenesis and neovascularization of tumor tissues. See Ausprunk et al., Am. J. Pathol., 79:597-618 (1975) and Ossonski et al., Cancer Res., 40:2300-2309 (1980).
Angiogenesis was induced on the CAMs of 10 day old chick embryos with bFGF. Twenty-four hours later the embryos received a single IV injection with 100 μg of FRIP-1 or AAA control peptide. Three days later angiogenesis was quantified by counting the number of blood vessel branch points within the area of the filter disc. […] FIG. 8B is a quantification of the angiogenesis experiments. […] In FIG. 8B, NT corresponds to No bFGF, FRIP-1 to bFGF+FRIP-1 peptide, and AAA to bFGF+control AAA peptide. Data bars represent the mean±standard errors of 5 to 10 embryos per condition.

Chain of MMP-9 (P14780 94-707): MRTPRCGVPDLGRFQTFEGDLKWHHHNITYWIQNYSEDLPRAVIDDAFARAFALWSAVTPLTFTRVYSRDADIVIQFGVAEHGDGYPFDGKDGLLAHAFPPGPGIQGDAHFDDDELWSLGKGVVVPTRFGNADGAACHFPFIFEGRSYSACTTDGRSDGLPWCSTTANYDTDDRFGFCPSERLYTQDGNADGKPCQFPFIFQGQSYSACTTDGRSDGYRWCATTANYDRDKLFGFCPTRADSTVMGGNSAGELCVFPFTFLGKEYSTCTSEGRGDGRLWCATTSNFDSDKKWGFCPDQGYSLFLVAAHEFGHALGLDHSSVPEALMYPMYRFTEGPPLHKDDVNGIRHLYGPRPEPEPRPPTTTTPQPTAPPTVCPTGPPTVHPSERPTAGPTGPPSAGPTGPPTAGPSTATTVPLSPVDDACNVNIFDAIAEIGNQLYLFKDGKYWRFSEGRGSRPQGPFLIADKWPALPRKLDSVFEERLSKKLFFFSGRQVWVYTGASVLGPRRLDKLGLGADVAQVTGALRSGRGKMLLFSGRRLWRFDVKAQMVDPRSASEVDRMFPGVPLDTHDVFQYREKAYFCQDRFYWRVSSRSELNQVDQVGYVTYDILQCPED

| Sequence | binding to MMP-9 (MMP-9) | angiogenesis (number of blood vessel branch points within the area of the filter disc) [1] |
| --- | --- | --- |
| CRAAAAEPQC (cysteine pairing not given here) [control peptide, reference compound] | binds with substantially reduced affinity | – |
| CRAAAGEPQC (cysteine pairing not given here) [control peptide identical to FRIP-1 except that 3 key amino acids were changed, reference compound] | little in any binding ability | – |
| CRLRSGEPQC (cysteine pairing not given here) [synthetic peptide derived from the C-terminal hemopexin-like domain of human MMP-9] | specifically bind to MMP-9; also recorded: binds to MMP-9 | blocks angiogenesis; also recorded: inhibit angiogenesis |
